Experimental data published in patent publication US20250276080A1 (Amgen, published 2025).
Each block holds one binder with its values, some of them ahead of it. Where no end group is shown, it is not given here. [ ]: non-standard residue; d: D form. Aib = CC(C)(N)C(=O)O

Columns and labels:
Assay in all cases: cell-based or functional assay
[1] = target: human glucagon-like peptide-1 receptor (human, UniProt P43220 24-463)
human glucagon receptor [2] = target: human glucagon receptor (human, UniProt P47871 26-477)
Target sequence in this assay (P47871 26-477): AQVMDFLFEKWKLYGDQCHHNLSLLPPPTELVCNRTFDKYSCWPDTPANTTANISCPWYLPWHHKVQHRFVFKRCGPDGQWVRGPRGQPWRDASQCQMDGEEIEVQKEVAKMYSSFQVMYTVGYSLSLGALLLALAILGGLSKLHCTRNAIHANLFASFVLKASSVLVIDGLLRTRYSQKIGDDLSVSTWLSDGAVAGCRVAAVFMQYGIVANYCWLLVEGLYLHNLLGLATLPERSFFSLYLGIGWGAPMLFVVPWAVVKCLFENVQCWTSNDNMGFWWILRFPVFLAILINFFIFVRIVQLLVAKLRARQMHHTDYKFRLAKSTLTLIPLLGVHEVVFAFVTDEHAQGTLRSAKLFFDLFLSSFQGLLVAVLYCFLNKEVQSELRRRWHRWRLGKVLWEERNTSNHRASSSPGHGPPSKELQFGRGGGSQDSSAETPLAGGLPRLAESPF

human glucagon receptor [3] = target: human glucagon receptor (human, UniProt P47871 26-477); remark: listed apart in the source
Target sequence in this assay (P47871 26-477): as above

human GLP-1 receptor = human GLP-1 receptor (human, UniProt P43220 24-463)

B1: Conjugate 25435: Fc SEFL2 T487C-15997 (other)
chain 1: DKTHTCPPCPAPELLGGPSVFLFPPKPKDTLMISRTPEVTCVVVDVSHEDPEVKFNWYVDGVEVHNAKTKPCEEQYGSTYRCVSVLTVLHQDWLNGKEYKCKVSNKALPAPIEKTISKAKGQPREPQVYTLPPSREEMCKNQVSLTCLVKGFYPSDIAVEWESNGQPENNYKTTPPVLDSDGSFFLYSKLTVDKSRWQQGNVFSCSVMHEALHNHYTQKSLSLSPGK
peptide: H[dS]QGTFTSDYSKYLD[Aib]RRAQDFVQWLLKT
chain 2: Ac-GSPAPAPAPAPAPAPAPAPAPASGG
modifications: not fully specified; also: thioether at chain A 139 to a chain's N-terminus via acetyl, bond at chain B 28 to a chain's C-terminus
hGLP-1R EC50 (pM) [1]: 9770 pM
hGCGR EC50 (pM) (human glucagon receptor [2]): 9.1 pM

B2: Conjugate 40741: aGIPR 5G12 SEFL2 E384C-39903 (other)
heavy: QVQLVESGGGVVQPGRSLRLSCTASGFTFSSYGIHWVRQAPGKGLEWVAVIWYDGSNKFHADSVKGRFTISRDNSKNTLYLQMNSLRAEDSAMYFCARGKVAGMPEAFEIWGQGTKVTVSSASTKGPSVFPLAPSSKSTSGGTAALGCLVKDYFPEPVTVSWNSGALTSGVHTFPAVLQSSGLYSLSSVVTVPSSSLGTQTYICNVNHKPSNTKVDKKVEPKSCDKTHTCPPCPAPELLGGPSVFLFPPKPKDTLMISRTPEVTCVVVDVSHEDPCVKFNWYVDGVEVHNAKTKPCEEQYGSTYRCVSVLTVLHQDWLNGKEYKCKVSNKALPAPIEKTISKAKGQPREPQVYTLPPSREEMTKNQVSLTCLVKGFYPSDIAVEWESNGQPENNYKTTPPVLDSDGSFFLYSKLTVDKSRWQQGNVFSCSVMHEALHNHYTQKSLSLSPGK
light: DIQLTQSPSSLSASVGDRVTITCRASQTISRFLNWYQQKPGKAPELLIYVASSLQSGVPSRFSGSGSGTDFTLTISSLQPEDFATYYCQQSYSTLISFGQGTKLEITRTVAAPSVFIFPPSDEQLKSGTASVVCLLNNFYPREAKVQWKVDNALQSGNSQESVTEQDSKDSTYSLSSTLTLSKADYEKHKVYACEVTHQGLSSPVTKSFNRGEC
peptide: HSQGTFTSDYSKYLDQRRAQDFVQWLLKT
chain: GSPAPAPAPAPAPAPAPAPAPASGG
modifications: N-term acetyl-thioether to Cys; d-Ser2; K28 eps-NH linked to linker C-term; C276 conjugated to linker
hGLP-1R EC50 (pM) [1]: 8020 pM
hGCGR EC50 (pM) (human glucagon receptor [2]): 40.9 pM

Other lines, results leading:

hGCGR EC50 (pM) (human glucagon receptor [3]): 127 pM
hGLP-1R EC50 (pM) (human GLP-1 receptor): 289 pM
B3: Conjugate 92868: aGIPR 5G12 SEFL2 E384C-92840 (other)
heavy: B2 heavy
light: B2 light
peptide: HSQGTFTSDYSKYLDEKRAREFVEWLLKS
chain: GGGGSGGGGSPAPAPAPAPAPASGG
modifications: N-terminus conjugated to heavy-chain Cys; d-Ser2; K28 side chain amide-linked to linker C-terminus; C276 conjugated to linker

hGCGR EC50 (pM) (human glucagon receptor [3]): 152 pM
hGLP-1R EC50 (pM) (human GLP-1 receptor): 6750 pM
B4: Conjugate 91659: aGIPR 5G12 SEFL2 E384C-91255 (other)
heavy: B2 heavy
light: B2 light
peptide: HSQGTFTSDYSKYLDEKRAQEFVEWLLKS
chain: GGGGSGGGGSPAPAPAPAPAPASGG
modifications: N-terminus conjugated to heavy-chain Cys; d-Ser2; K28 side chain amide-linked to linker C-terminus; C276 conjugated to linker

hGCGR EC50 (pM) (human glucagon receptor [3]): 41.3 pM
B5: Conjugate 88013: aGIPR 5G12 SEFL2 E384C-87021 (other)
heavy: B2 heavy
light: B2 light
peptide: HSQGTFTSDYSKYLDAKRAQEFVEWLLKS
chain: GGGGSGGGGSPAPAPAPAPAPASGG
modifications: N-terminus conjugated to heavy-chain Cys; K28 side chain amide-linked to linker C-terminus; C276 conjugated to linker
